Consider two molecules from patent publication US20200048348A1.

The target in assay [1] is human CD3 (human) (UniProt P07766). Put plainly: flow cytometry, bispecific antibody on Jurkat cells; antibody concentration not given.
Assay [2] has the same target. Put plainly: Octet, protein binding affinity of the anti-CD3 arm of the bispecific; form of the CD3 protein not stated. Background: In BLI a coated tip is dipped into the sample, and binding shifts an interference pattern.
Assay [3] has the same target.

Sequence of human CD3 (human) (P07766 23-207, chain 1 of 2): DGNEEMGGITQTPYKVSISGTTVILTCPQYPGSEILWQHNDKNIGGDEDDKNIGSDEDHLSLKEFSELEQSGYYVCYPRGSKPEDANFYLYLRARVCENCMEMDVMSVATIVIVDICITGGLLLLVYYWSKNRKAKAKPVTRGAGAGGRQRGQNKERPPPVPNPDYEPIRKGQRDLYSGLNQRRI
Sequence of human CD3 (human) (P04234 22-171, chain 2 of 2, further chain): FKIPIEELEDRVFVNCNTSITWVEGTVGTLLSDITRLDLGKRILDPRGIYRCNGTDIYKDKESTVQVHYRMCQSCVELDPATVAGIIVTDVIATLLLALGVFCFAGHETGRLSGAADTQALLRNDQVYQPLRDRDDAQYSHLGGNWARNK

B1: CD3_F2F-BCMA (bispecific antibody, part only; not given: anti-BCMA arm and common light chain, part only)
anti-CD3 heavy chain: EVQLVESGGGLVQPGRSLRLSCAASGFTFHNYAMHWVRQAPGKGLEWVSGISWNSGSIGYADSVKGRFTISRDNAKNSLYLQMNSLRAEDTALYYCAKDSRGYGDYSLGGAYWGQGTLVTVSS
In general, Kd refers to the concentration at which binding is half-saturated. A low value points to tighter binding. In the assay with human CD3 (human) [1], B1 showed a Jurkat cell bind (MFI) of 67 MFI. In the assay with human CD3 (human) [2], the Kd amounted to 714 nM. Further, in the assay with human CD3 (human) [3], the %kill of U266 tumor cells with human pan T-cells at 333 ng/mL bispecific was 51%; the IFNg released by pan T-cells, bispecific on plate-coated BCMA protein, at 12 ng/mL bispecific was 333 pg; the IL-2 released by pan T-cells, bispecific on plate-coated BCMA protein, at 37 ng/mL bispecific came to 44 pg; the IL-6 released by pan T-cells, bispecific on plate-coated BCMA protein, at 111 ng/mL bispecific was 0.5 pg. For the same molecule, in the assay with human CD3 (human) [3], the IL-10 released by pan T-cells, bispecific on plate-coated BCMA protein, at 111 ng/mL bispecific amounted to 2.4 pg; the TNFa released by pan T-cells, bispecific on plate-coated BCMA protein, at 12 ng/mL bispecific came to 485 pg; the kill EC50: U266 tumor cell lysis with human pan T-cells amounted to 0.0098 µg/mL.

B2: CD3_F2B-BCMA (bispecific antibody, part only; not given: anti-BCMA arm and common light chain, part only)
anti-CD3 heavy chain: EVQLVESGGGLVQPGRSLRLSCAASGFTFDDYAMHWVRQAPGKGLEWVSGISWNSGSIGYADSVKGRFTISRDNAKNSLYLQMNSLRAEDTALYYCAKDSRGYGDYRLGGAYWGQGTLVTVSS
As to B2, in the assay with human CD3 (human) [1], the Jurkat cell bind (MFI) was determined as 31 MFI. This molecule had a Kd in the assay with human CD3 (human) [2] of 1000 nM. In the assay with human CD3 (human) [3], the %kill of U266 tumor cells with human pan T-cells at 333 ng/mL bispecific was 38%; the IFNg released by pan T-cells, bispecific on plate-coated BCMA protein, at 12 ng/mL bispecific turned out to be 154 pg; the IL-2 released by pan T-cells, bispecific on plate-coated BCMA protein, at 37 ng/mL bispecific was found to be 8 pg; the IL-6 released by pan T-cells, bispecific on plate-coated BCMA protein, at 111 ng/mL bispecific is 0.5 pg. In addition, in the assay with human CD3 (human) [3], the IL-10 released by pan T-cells, bispecific on plate-coated BCMA protein, at 111 ng/mL bispecific stood at 0.6 pg; the TNFa released by pan T-cells, bispecific on plate-coated BCMA protein, at 12 ng/mL bispecific was 553 pg; the kill EC50: U266 tumor cell lysis with human pan T-cells is 0.15 µg/mL.
